Experiment in all cases: indirect ELISA, recombinant protein coated on plate
(In an ELISA, binding on a coated surface is turned into a signal by an enzyme label.)

One assay has as its target T1, 结核分枝杆菌特异性重组蛋白38KD (Mycobacterium tuberculosis, UniProt P9WGU1 24-374).
T1 sequence (looked up): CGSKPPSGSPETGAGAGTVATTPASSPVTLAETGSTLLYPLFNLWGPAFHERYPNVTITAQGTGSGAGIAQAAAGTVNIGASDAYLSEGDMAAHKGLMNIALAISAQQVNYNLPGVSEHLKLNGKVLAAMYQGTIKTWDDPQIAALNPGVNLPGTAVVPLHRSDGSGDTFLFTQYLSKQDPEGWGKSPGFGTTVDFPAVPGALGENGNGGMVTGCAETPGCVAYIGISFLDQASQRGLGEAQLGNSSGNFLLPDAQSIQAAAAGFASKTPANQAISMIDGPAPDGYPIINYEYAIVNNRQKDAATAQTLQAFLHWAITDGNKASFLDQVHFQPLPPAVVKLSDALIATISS

Another assay concerns the target T2, 结核分枝杆菌特异性重组蛋白MPT64 (Mycobacterium tuberculosis, UniProt P9WIN9 24-228).
T2 sequence (looked up): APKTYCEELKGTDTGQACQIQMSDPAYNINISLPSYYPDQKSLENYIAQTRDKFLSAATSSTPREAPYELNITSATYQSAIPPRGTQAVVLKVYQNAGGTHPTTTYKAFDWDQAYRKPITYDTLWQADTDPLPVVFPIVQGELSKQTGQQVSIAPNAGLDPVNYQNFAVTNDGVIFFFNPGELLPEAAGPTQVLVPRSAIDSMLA

A further assay addresses T3, 结核分枝杆菌特异性重组蛋白MPT32 (Mycobacterium tuberculosis, UniProt P9WIR7 40-325).
T3 sequence (looked up): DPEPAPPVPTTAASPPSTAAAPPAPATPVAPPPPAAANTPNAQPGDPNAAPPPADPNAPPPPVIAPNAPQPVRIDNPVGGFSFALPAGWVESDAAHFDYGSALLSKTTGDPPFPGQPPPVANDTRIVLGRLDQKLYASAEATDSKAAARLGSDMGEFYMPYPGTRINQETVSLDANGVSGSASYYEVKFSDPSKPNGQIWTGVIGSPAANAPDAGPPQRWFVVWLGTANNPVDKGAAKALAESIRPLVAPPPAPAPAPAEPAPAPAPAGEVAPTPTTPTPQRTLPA

The next assay deals with 结核分枝杆菌特异性重组蛋白Mtb81 (Mycobacterium tuberculosis, UniProt P9WK17 1-741).
Sequence of 结核分枝杆菌特异性重组蛋白Mtb81 (P9WK17 whole entry): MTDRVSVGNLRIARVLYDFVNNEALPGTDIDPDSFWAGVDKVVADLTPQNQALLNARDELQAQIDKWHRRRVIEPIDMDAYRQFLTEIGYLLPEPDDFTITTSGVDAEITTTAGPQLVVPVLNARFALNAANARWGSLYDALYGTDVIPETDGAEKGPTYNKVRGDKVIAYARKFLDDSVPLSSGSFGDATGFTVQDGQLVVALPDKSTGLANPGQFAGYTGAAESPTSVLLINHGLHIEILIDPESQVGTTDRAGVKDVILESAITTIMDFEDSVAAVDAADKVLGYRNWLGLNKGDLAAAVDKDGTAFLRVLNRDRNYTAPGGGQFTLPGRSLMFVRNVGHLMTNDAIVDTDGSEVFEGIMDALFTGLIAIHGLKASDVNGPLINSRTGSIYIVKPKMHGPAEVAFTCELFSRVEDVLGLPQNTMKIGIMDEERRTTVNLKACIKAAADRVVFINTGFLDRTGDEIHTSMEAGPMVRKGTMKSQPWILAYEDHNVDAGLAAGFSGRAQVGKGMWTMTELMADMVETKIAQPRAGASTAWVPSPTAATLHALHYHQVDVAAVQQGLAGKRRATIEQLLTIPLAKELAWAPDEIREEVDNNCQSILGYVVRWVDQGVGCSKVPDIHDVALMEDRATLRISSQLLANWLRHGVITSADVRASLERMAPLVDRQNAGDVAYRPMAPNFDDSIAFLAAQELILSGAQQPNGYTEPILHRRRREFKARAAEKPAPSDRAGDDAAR
In another assay the target is T4, 结核分枝杆菌特异性重组蛋白CFP10 (Mycobacterium tuberculosis, UniProt P9WNK5 1-100).
T4 sequence (looked up): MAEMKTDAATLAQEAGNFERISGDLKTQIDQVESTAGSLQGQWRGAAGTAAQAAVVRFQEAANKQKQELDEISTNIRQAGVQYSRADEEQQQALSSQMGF

The next assay has as its target T5, 结核分枝杆菌特异性重组蛋白EspC (Mycobacterium tuberculosis, UniProt P9WJD7 1-103).
T5 sequence (looked up): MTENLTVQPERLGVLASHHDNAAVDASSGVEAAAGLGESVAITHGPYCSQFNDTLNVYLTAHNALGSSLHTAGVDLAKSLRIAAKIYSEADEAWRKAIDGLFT

Changes are numbered by the printed parent chain.

B1: BJRbL01 (antibody, V domains shown)
VH: QSVEESGGRLVTPGTSLTLTCTVSGFSLSNYDMGWVRQAPGKGLEWIGNIWSNGYTDYASWVNGRFTISKTSSTTMDLKMTSLTTEDMATYFCARGSSGYVGDIWGPGTLVTVSS
VL: DPVLTQTPASVEVAVGGTVTMNCQASHSVYGNNELSWYQQKPGQPPKLLVYKASTLASGVPSRFKGSGSGTQFTLTISDLECDDAAIYYCQGGYWGNRAFGGGTEVVVKG
notes: also called 兔抗LAM单克隆抗体 BJRbL01; 抗LAM抗体
For B1, the binding result with 结核分枝杆菌特异性重组蛋白38KD, with 结核分枝杆菌特异性重组蛋白MPT64, in the assay with 结核分枝杆菌特异性重组蛋白MPT32, with 结核分枝杆菌特异性重组蛋白Mtb81, with 结核分枝杆菌特异性重组蛋白CFP10 and with 结核分枝杆菌特异性重组蛋白EspC was “no binding (tested: protein coated at 5μg/ml)” throughout.

B2: BJRbL03 (antibody, V domains shown)
VH: B1 VH with V3L, S29R, N30S, N49S, G54D, Y55F, I68V, T85S, M88T, A94V
VL: DPMLTQTASSVSAAVGGTVTINCQASQSVYGNNELSWYQQKPGQPPKLLIYKASTLASGVPSRFKASGSGTQFTLTISDLECDDAAIYYCQGGYWGNRAFGGGTKLEIKG
notes: also called 兔抗LAM单克隆抗体 BJRbL03; 抗LAM抗体
In the case of B2, the binding result with 结核分枝杆菌特异性重组蛋白38KD, with 结核分枝杆菌特异性重组蛋白MPT64, with 结核分枝杆菌特异性重组蛋白MPT32, with 结核分枝杆菌特异性重组蛋白Mtb81, in the assay with 结核分枝杆菌特异性重组蛋白CFP10 and with 结核分枝杆菌特异性重组蛋白EspC was “no binding (tested: protein coated at 5μg/ml)” throughout.

These data come from patent CN111153992A (BEIJING CHEST HOSPITAL CAPITAL MEDICAL UNIV; BEIJING …, dated 2020).
